# Measurements published in the DeepSol protein solubility set.
# Experiment: soluble on expression in E. coli; label from the status in PepcDB or PDB records
row,Sequence,soluble on expression in E. coli
1,MSLKRQRIVIKIGSSSLTTKQGALDLEKLEGYVRAIVNLRKAGHEVILISSGAVAAGFSRLGYPVRPTTMAGKQAAAAVGQALLMQHYMERFHQHGIIAAQLLLTRKDFQNQTQYTNAYSALMELLKRGALPIINENDSTSIAELTFGDNDMLSALVSGLIHAHTLCILTDVNGLYDANPKTHPNAKRYQYLPTIPDEMLQMGGEAGSNVGTGGMKSKVAAAQTALSLGVDVFIGKASGEHALLDILSGKGDGTYVGNTGDLMEGKTKQWIRLHSPVSGVVRIDQGAERAIMNEGKSLLPAGVTSVHGTFQAGDVVHIWNEQNKVIAKGQVTLSSEQLRKVQGRKSDEAKQLIPLVRDEVVHRDQLVIQEKELNESEGHHHHHH,not soluble
2,MSLKSYILLIKCKTDTTIRTKSKKFLIRKGVYAYVGSCGRSCGRRVSRHFNKEKSNYHWHIDYLTKACEPIGVFVMNHVGEKELALLFSKNNAFIEEFGSSDDKDAKSHLFIVNDLQELCSTVCDKSREREGHHHHHH,soluble
3,MSLKTVVVSGASVAGTAAAYWLGRHGYSVTMVERHPGLRPGGQAIDVRGPALDVLERMGLLAAAQEHKTRIRGASFVDRDGNELFRDTESTPTGGPVNSPDIELLRDDLVELLYGATQPSVEYLFDDSISTLQDDGDSVRVTFERAAAREFDLVIGADGLHSNVRRLVFGPEEQFVKRLGTHAAIFTVPNFLELDYWQTWHYGDSTMAGVYSARNNTEARAALAFMDTELRIDYRDTEAQFAELQRRMAEDGWVRAQLLHYMRSAPDFYFDEMSQILMDRWSRGRVALVGDAGYCCSPLSGQGTSVALLGAYILAGELKAAGDDYQLGFANYHAEFHGFVERNQWLVSDNIPGGAPIPQEEFERIVHSITIKDYEGHHHHHH,not soluble
4,MSLKTYDAFPEPIGGYTVGRTQMDFEYTASDHSKRELTAFVYYPSDSSEGKTTSTYMFPEVYEMFNEQPLVTALKDVFSIDIKTQCYDDLALSGKEKRYPVLFYVCGGGGSPEWGTVICTDLASMGYVVVSIGHQNSTMYKRKDGRLFNVSKDFSDVIMAFSEDPEMLALAGKMEMRPDDETAIEMCHNVLTLPILAKLTEYSELQAEDVRYVADYLYKLDSGELNSIFKGRLLLDIGMGIVGHSYGGPTTAIVCRDDDRFACGIGLDSGAFGLLDSDLKKPFLLLFCEPNYNMNAIIGANNSMETYYFSVDRVAHLDYCDIVFTSVNEELRGERDAMEMRNLVTDYTKNFFDHYILLKAASVESLAYDGVDLIKKTSNKEGHHHHHH,soluble
5,MSLKVLAFDTSSKALSLAILEDKQVLAETTINIKKNHSITLMPAIDFLMASLDWTPKDLDRIVVAEGPGSYTGLRIAVATAKTLAHTLNIELVGMSSLLALVPYQQEGLFIPLMDARRNNVYAGFYENAKPVMAEAHLPFERVIELIKGASQVTFVGEVGPFVEQIQKHLPRTDYKETLPNAANLALLAWDKEADSLHDFVPNYLKRVEAEENWLKNHTESGESYIKRLEGHHHHHH,soluble
6,MSLKYGRDTIVEVDLNAVKHNVKEFKKRVNDENIAMMAAVKANGYGHGAVEVAKAAIEAGINQLAIAFVDEAIELREAGINVPILILGYTSVAAAEEAIQYDVMMTVYRSEDLQGINEIANRLQKKAQIQVKIDTGMSRIGLQEEEVKPFLEELKRMEYVEVVGMFTHYSTADEIDKSYTNMQTSLFEKAVNTAKELGIHIPYIHSSNSAGSMEPSNTFQNMVRVGIGIYGMYPSKEVNHSVVSLQPALSLKSKVAHIKHAKKNRGVSYGNTYVTTGEEWIATVPIGYADGYNRQLSNKGHALINGVRVPVIGRVCMDQLMLDVSKAMPVQVGDEVVFYGKQGEENIAVEEIADMLGTINYEVTCMLDRRIPRVYKENNETTAVVNILRKN,not soluble
7,MSLKYKNLFFDLDDTIWAFSRNARDTFEEVYQKYSFDRYFDSFDHYYTLYQRRNTELWLEYGEGKVTKEELNRQRFFYPLQAVGVEDEALAERFSEDFFAIIPTKSGLMPHAKEVLEYLAPQYNLYILSNGFRELQSRKMRSAGVDRYFKKIILSEDLGVLKPRPEIFHFALSATQSELRESLMIGDSWEADITGAHGVGMHQAFYNVTERTVFPFQPTYHIHSLKELMNLLEGHHHHPPLIRIRAPSTSLRPHSSTTTTTTEIRLLTKPERKLSWLLPPLSNN,soluble
8,MSLLANLPPLVTVFGGSGFVGRHVVRMLAKRGYRIRVAVRRPDLAGFLQPLGNVGQISFAQANLRYRDSIIKAVEDADHVVNCVGILAESGRNTFDAVQEFGAKAIAEAARDTGATLTHISAIGADANSQTGYGRTKGRAEAAIHSVLPGAVILRPSIIFGPEDDFFNKFAKMARNLPFLPLIGGGKTKFQPVYVEDVAEAVARSVDGKLKPGAIYELGGPDVMTFRDCLEAVLAATYRERSFVNLPFGVASMIGKLASLVPLITPPLTPDQVTMLKKDNVVSAEAEKKGLTLEGIGITPVRVASVLPSYMVQYRQHGQFSNAGKAAEGHHHHHH,soluble
9,MSLLLFQSLLRRGLLVAINFSPKVGEILECNFGNYPVSQNGPFSTTYYDGRIPPEMIKNRLVVVLNGKINGNAFIVVPLSTTRDHDKLKRGMHVEIASNVINDLQFFDQQIRWAKTDLVQQVSRNRLNRARTYRGYLNQCLPHELVADIQRAVIKSINAISLINEGHHHHHH,not soluble
10,MSLLLTNHIGYERLGPKKAIIQTEQPHLSSYTAQLICATSEQTVATFAVEEQGKVANWHQGYFYLIDFSSFTDSGDYFLQVEDSRSSTFTVGEHILLNQTLSDVIHYFKSQRCGGVFDQQDRQVPVLNANQTADVHGGWYDASGDVSKYLSHLSYANYLNPQQTPMVVWNILKGLSLLEGSEDIAAFTRTRLIEEALFGADFLVRMQNEKGFFYMTVFDKWSKDTAQREICAYETQLGHKFDDYQAGFRQGGGVAIAALAAASRLGVHGEYDQQKYRNAAENGYWHLKEHNTQYLNDGEENIIDEYCALLASVELFKATKETRYLEESRLWAQRLVARQMSDEQIQHFWSANQDGSRPYFHAAEAGLPTIALCEYLAIEDDSVQTESVKCIVNRACEFEIKISNKVTNPFGYPRQYVKGVNESKRDAFFVAHNNESGYWWQGENARLGSLATMAYLAQPHIASQEIQQQLSVFAQDALNWIVGLNPYDMCMLDGHGRNNPDYLPQYGFFNAKGGVCNGITGGFEDEEDIAFNPPAQKDDMLQNWRWGEQWIPHGAWYLLAIMSQAQHISQLATSKNIKEGHHHHHH,soluble
11,MSLLNRLRAFRERGWREVDAPTYAQAWQRFGGSVATHPLVVEQLAEMAGIPVRYLGWESAGELVAAIPTWGRHLALSKDVLKRRGKKGLYDLGNAELILPVAGDARIALRHAGRYLSALHERNIVTLRPQTEQLAFARAPEDFSKKFRYNQRREVRLVEEAGGQVRQADSFAPAEFAAMYLELFQRRWGFPATGAERMAEVFERLRELLRGSVLLLNDQPIAVQVLYRAEAPGWLSVEYINGGVDPQTREFSPGSVLSYLNTQAAWEDARALGKPLRYSFGRADREYKDRWCHPSPVFQVEGHHHHHH,soluble
12,MSLLNSPLAERIRPQNLSEYLSQNHLVGERGTLRQHILNGTIPSLILWGPPGTGKTTLANIIAQESKRPFYTLSAINSGVKDVREVIDKAKSAGGLFTAKNPILFIDEIHRFSKSQQDSLLAAVEKGWVTLIGATTENPSFEVIPALLSRCQVYVLDAFAKADLEQLLHRAMKIDEVLSIKDITIQETEALLRISGGDARKLLNIFELVINSQPSGPIVITNELVFEQVQSNPARYDKTGEQHYDIISAFIKSIRGSDPNAAVYWLARMIEGGEDLKFIARRMLILASEDIGNANPTALIMANNTFQAVSTIGYPESRIILSQCAIYLATSIKSNASYLAIGQAQQIVKQTGDLPVPLGLRNAPTKLMKELGYGQEYKYAHDHPGNFAQFDFLPTEISGTKIFNPGNNPREQAQREFLEKRWKEHYDYKPSKGEGHHHHHH,soluble
13,MSLLWSRCTLFLFLCPIRVRGREHIPGKGPFVVMANHQGACDIFMMYGYLGIPFKWVLKEGIRKLPFVGYACRSAGFVFVDDTRPSSIAHTMDQAKRVLAEGTSIFIFPEGSRTRNGRLARFKKGGFLMADELGVPIIPVSLDGSYRVLPSGKLIPRPHRLTLTIHPPLSVADFGERPLCISEAVRETSRRIASVLPEEMAATQSKEGHHHHHH,not soluble
14,MSLMKLTKLFLATAISLGVSSAVLAADYDLKFGMNAGTSSNEYKAAEMFAKEVKEKSQGKIEISLYPSSQLGDDRAMLKQLKDGSLDFTFAESARFQLFYPEAAVFALPYVISNYNVAQKALFDTEFGKDLIKKMDKDLGVTLLSQAYNGTRQTTSNRAINSIADMKGLKLRVPNAATNLAYAKYVGASPTPMAFSEVYLALQTNAVDGQENPLAAVQAQKFYEVQKFLAMTNHILNDQLYLVSNETYKELPEDLQKVVKDAAENAAKYHTKLFVDGEKDLVTFFEKQGVKITHPDLVPFKESMKPYYAEFVKQTGQKGESALKQIEAINPEGGSHHHHHH,soluble
15,MSLMKNILAIQSHVVYGHAGNSAAEFPMRRLGANVWPLNTVQFSNHTQYGKWTGCVMPPSHLTEIVQGIAAIDKLHTCDAVLSGYLGSAEQGEHILGIVRQVKAANPQAKYFCDPVMGHPEKGCIVAPGVAEFHVRHGLPASDIIAPNLVELEILCEHAVNNVEEAVLAARELIAQGPQIVLVKHLARAGYSRDRFEMLLVTADEAWHISRPLVDFGMRQPVGVGDVTSGLLLVKLLQGATLQEALEHVTAAVYEIMVTTKAMQEYELQVVAAQDRIAKPEHYFSATKLEGGSHHHHHH,soluble
16,MSLNDSILEPKHRGNVREIAAIDLGSNSFHMIVARIVNGSIQVLSRLKQKVKLAEGLDENAVLNQEAITRGVNCLALFAERLQGFPMENVNVVGTYTLRRAVNNDEFLRQAAKVFPYPINIISGQTEAKTIYAGVCHTQPEKGRKLVIDIGGGSTEMIIGDDFTPLMAESRHMGCVSFATQFFTDGIISPENFQRARQSAVNKIEDLGLEYRKLGWQSVLGSSGTIKTVAQVIATNLDPNGTITAERLNALIEQTLQAKHFTELNINGLNQDRVDVFVPGLAILSAVFDVFHIQQMRYSDGALREGVIYSLEKNFQVADIRASTAEGHHHHHH,soluble
17,MSLNDYSRQNFLDLNLFRGLGEDPAYHPPVLTDRPRDWPLDRWAEAPRDLGYSDFSPYQWRGLRMLKDPDTQAVYHDMLWELRPRTIVELGVYNGGSLAWFRDLTKIMGIDCQVIGIDRDLSRCQIPASDMENITLHQGDCSDLTTFEHLREMAHPLIFIDDAHANTFNIMKWAVDHLLEEGDYFIIEDMIPYWYRYAPQLLSEYLGAFRDVLSMDMLYANASSQLDRGVLRRVAAKQEGHHHHHH,soluble
18,MSLNEDWPTIAFLVPMDRNHEYGRNYVSSLRKAAEEHHVNAFVMNSNYDASVQASQMKIAIAKKVDGIVIWPALYGAEQPMLIQAQRAGIPVDISNSQPPEDLDTSLYHAFTGPNDQRIGELQGKELAKLLGSKGTYVYIGGTPGNAAAINRQIGLEREMANHPDVKLLGSQPGNFDKNQAQTAASALISRFGNQIDALVTPDDIIASGAAQALDAAGMAGQVKLLGHNYAPVARSLLENGSMSTTLFQSPCWDSTHALTTMMDVLAGKDVPPVSYMPLPVVTKDNLDEFTPNGCLPEGYSEPATNEGHHHHHH,soluble
19,MSLNEELIKTGDFAKMCAVTKKALYVYEAKGLLKPAVVKDNGYRYYRLEQVDQVATIRLLEKLGSSLQEVGDFFALKDLNERQKYLGKQQEAVEREMAELGKIKSSLEFFDQRISDLKQTGLKKWRLRLARKNTWKSVLLGMVFREGHHHHHH,not soluble
20,MSLNEETRKKKKRPSLTTLYEGTMKEITSNENRYIEFLNFASRVHKYSFDEQLLLYAQKQDVHMVATFDIWKKLGRFVKRGSTAALLFDYTTQQRKYVFDISETGGEPLQVFDWQLLDNDKNDLLRYWNTYEKQSGTLVNWEDGIHAKIASYQKPIGDQIHPFFVKDIEVVAAYIIYQRTNTLIPEDLLLDVQSVLQIGKRDNTLLEIQHFANLTAKEFLQDVERILNNELKKERVLYHDRIKFEDELSRREWQPASRDREGHHHHHH,not soluble
